Two molecules from publication PMC7323874, “Vancomycin Resistance Is Overcome by Conjugation of Polycationic Peptides” (Angewandte Chemie (International Ed. in English), 2020) can be followed below.

The structures appear in SMILES notation.

Data set [1] deals with human erythrocytes. Description: Hemolysis assay. Type of data set: cell-based. Particulars: up to a concentration of 640 µg/ml; 120 min at 37 °C; absorption at 554 nm; 1% Triton X-100 as positive control. The protocol:
For hemolysis studies, blood from four different, fasted men were taken to determine the hemoglobin release. Erythrocytes were purified centrifuging blood at 2500 rpm for 3 min. The remaining pellet was washed with PBS and centrifuged again. This process was repeated until the supernatant remained clear.
For the hemolysis assay, v-bottom plates were used. FU002 was tested in duplicates in three different assays. As positive control, a 1% Triton® in 0.9%-NaCl solution was used.
FU002 was serial diluted on the plate, resulting in 50 µl of a final concentration of 640 µg/ml to 1.25 µg/ml. Every well contained 50 µl of the purified erythrocytes. […] 50 µl of the supernatant were transferred to a flat-bottom plate and absorption was measured at 554 nm.
Hemolysis was calculated as followed: […]
Cobra Auto γ-Counter, (Packard Bioscience, USA) in comparison with standards. The tissue-associated activity was related to the total injected dose (ID) and expressed as a percentage of the total injected dose per gram of tissue (%ID/g). […]
Mice were infected by intravenous application of the bacterial inoculum via the tail vein. […] During infection, mice were scored twice daily and sacrificed at day 4 post infection and livers harvested. […] Significant differences in the CFU of the livers were determined with Kruskal-Wallis test (software: GraphPad Prism 5.0).

A short description of data set [2]: Molecular imaging (PET, scintigraphy) and biodistribution of radiolabeled compounds. Type of data set: in vivo, female Wistar rats. Conditions: for scintigraphy, distribution and excretion: i.v. The protocol: Biodistribution and pharmacokinetic studies
The biodistribution and pharmacokinetic studies were performed with radiolabeled (124I/125I) compounds. For this radiolabeling strategy, a D-tyrosine-modified derivative was synthesized, which enabled the […] substitution. The D-tyrosine was located at the N-terminus of the respective peptide. Vancomycin was radiolabeled without any further structural modification. For radiolabeling, a 1 mM stock solution of phosphate buffer/dimethyl sulfoxide was prepared as described previously by Uhl et al.12 The required amount of radioactive iodine-124 (124I) or rather iodine-125 (125I) was added to a mixture of 25 µl of the stock solution and 25 µl of a phosphate buffer (0.25 mM; pH 7.5). Radiolabeling was performed using the chloramine T method as previously described by Crim et al.13 The labeled compound was purified by semi-preparative HPLC. Analysis was done by radio-HPLC (Agilent 1100 series) using a Chromolith® Performance RP-18e, 100–3 mm column applying a linear gradient of 0.1% TFA in water (eluent A) to 0.1% TFA in acetonitrile (eluent B) within 5 min; flow rate 2 ml/min; UV absorbance λ = 214 nm; γ-detection. The animal trials were approved by the Animal Care and Use committees at the Regierungspräsidium Karlsruhe, Germany. Adult, female, Wistar rats (200 – 250 g) were purchased from Janvier Labs (Le Genest-Saint-Isle, France). The animals were anaesthetized by isoflurane inhalation and appropriate amounts of the 124I/125I labelled peptides, dissolved in 100 µl of 0.9% NaCl were injected into the tail vein. For PET-imaging, an Inveon small animal PET scanner (Siemens) was used. Therefore, the animals were sacrificed 10 min or 60 min after injection of the radiolabeled compound and images were taken afterwards. The scintigraphic images were obtained using a γ-camera (Gamma Imager, Biospace, France). Cumulative images from 0–10 min, 60–70 min and 120–130 min after injection, were taken. For the biodistribution studies, the animals were sacrificed at certain time points, the organs were removed and weighed and the radioactivity of each sample was measured using a Cobra Auto γ-Counter, (Packard Bioscience, USA) in comparison with standards. The tissue-associated activity was related to the total injected dose (ID) and expressed as a percentage of the total injected dose per gram of tissue (%ID/g).
In vivo infection experiments
Animal studies were approved by the local government of Lower Franconia, Germany (approval number 55.2-2532-2-57) and performed in strict accordance with the guidelines for animal care and experimentation of German Animal Protection Law and the DIRECTIVE […]
For the in vivo experiments, we applied S. aureus strain USA300 LAC* lux, which was constructed by transducing the luxABCDE operon from S. aureus Xen29 (PerkinElmer, Waltham, MA, USA) with phage φ11 into S. aureus LAC* (AH2163).14 Overnight cultures of S. aureus USA300 LAC* lux in BHI medium were diluted to a final OD600 nm of 0.05 in 50 ml fresh BHI medium and grown for 3.5 hours at 37 °C. After centrifugation, the cell pellet was resuspended in BHI with 20 % glycerol, aliquoted and stored at -80 °C. For the generation of in vivo infection inocula, aliquots were thawed and washed twice with PBS. The desired bacterial concentration (5 x 10^7 CFU/100 µl) was then adjusted based on the respective OD600 nm values. A sample of the infection inoculum was plated on TSB agar plates in order to control the infection dose.
Female Balb/c mice (6 weeks, Janvier Labs, Le Genest-Saint-Isle, France) were used for all experiments.
Mice were infected by intravenous application of the bacterial inoculum via the tail vein. Treatment started at 2 hours p.i. and following doses were applied every 12 hours. The vancomycin group received 30 mg/kg body weight/ per day, the FU002 group received 56.4 mg/kg body weight/per day, the control group received equal amounts of sterile PBS at the respective time points. The mice were […]

Setting [3] is: 125I-labeled compounds (FU002 as 125I-FU002y), 10 min post injection.
Setting [4] is: 125I-labeled compounds (FU002 as D-Tyr derivative), 60 min post injection.

On to `CN[C@H](CC(C)C)C(=O)N[C@H]1C(=O)N[C@@H](CC(N)=O)C(=O)N[C@H]2C(=O)N[C@H]3C(=O)N[C@H](C(=O)N[C@H](C(=O)O)c4cc(O)cc(O)c4-c4cc3ccc4O)[C@H](O)c3ccc(c(Cl)c3)Oc3cc2cc(c3O[C@@H]2O[C@H](CO)[C@@H](O)[C@H](O)[C@H]2O[C@H]2C[C@](C)(N)[C@H](O)[C@H](C)O2)Oc2ccc(cc2Cl)[C@H]1O` [vancomycin], for which, in data set [1], the hemolytic activity result is given as “no relevant hemolytic activity”. The “PET imaging, distribution and excretion” value in data set [2] (124I-labeled compounds, i.v. tail vein, 10 min post injection) was “renal excretion”. Also, the “scintigraphy, distribution and excretion” value in data set [2] (setting [3]) was “fast, renal excretion”; in data set [2] (setting [4]), “almost completely excreted and only found in the bladder”.
In the case of `CC(C)C[C@H](C(=O)N[C@H]1C(=O)N[C@@H](CC(N)=O)C(=O)N[C@H]2C(=O)N[C@H]3C(=O)N[C@H](C(=O)N[C@H](C(=O)O)c4cc(O)cc(O)c4-c4cc3ccc4O)[C@H](O)c3ccc(c(Cl)c3)Oc3cc2cc(c3O[C@@H]2O[C@H](CO)[C@@H](O)[C@H](O)[C@H]2O[C@H]2C[C@](C)(N)[C@H](O)[C@H](C)O2)Oc2ccc(cc2Cl)[C@H]1O)N(C)C(=O)C1CCC(CN2C(=O)CC(SC[C@H](NC(=O)[C@H](CCCNC(=N)N)NC(=O)[C@H](CCCNC(=N)N)NC(=O)[C@H](CCCNC(=N)N)NC(=O)[C@H](CCCNC(=N)N)NC(=O)[C@H](CCCNC(=N)N)NC(=O)[C@@H](N)CCCNC(=N)N)C(N)=O)C2=O)CC1` (stereo partly drawn) [FU002], the hemolytic activity entry in data set [1] is on record as “no relevant hemolytic activity”. Moreover, the “scintigraphy, distribution and excretion” value was “directs in the liver and the kidneys” in data set [2] (setting [3]); “much slower excretion” in data set [2] (setting [4]). Moreover, the “biodistribution, organ uptake” value in data set [2] (125I-labeled, 10 min post injection, compared with vancomycin) is on record as “much higher organ uptake”. Moreover, in data set [2] (125I-labeled, after 1 hour, compared with vancomycin), the “biodistribution, retention in organ” value was “remains much longer in the corresponding organ”.
